Source: the DeepSol protein solubility set

Experiment: soluble on expression in E. coli; label from the status in PepcDB or PDB records
For “MRIIMPVEFSRIVRDVERLIAVEKYSLQGVVDGDKLLVVGFSEGSVNAYLYDGGETVKLNREPINSVLDPHYGVGRVILVRDVSKGAEQHALFKVNTSRPGEEQRLEAVKPMRILSGVDTGEAVVFTGATEDRVALYALDGGGLRELARLPGFGFVSDIRGDLIAGLGFFGGGRVSLFTSNLSSGGLRVFDSGEGSFSSASISPGMKVTAGLETAREARLVTVDPRDGSVEDLELPSKDFSSYRPTAITWLGYLPDGRLAVVARREGRSAVFIDGERVEAPQGNHGRVVLWRGKLVTSHTSLSTPPRIVSLPSGEPLLEGGLPEDLRRSIAGSRLVWVESFDGSRVPTYVLESGRAPTPGPTVVLVAGGPFAEDSDSWDTFAASLAAAGFHVVMPNYRGSTGYGEEWRLKIIGDPCGGELEDVSAAARWARESGLASELYIMGYSYGGYMTLCALTMKPGLFKAGVAGASVVDWEEMYELSDAAFRNFIEQLTGGSREIMRSRSPINHVDRIKEPLALIHPQNDSRTPLKPLLRLMGELLARGKTFEAHIIPDAGHAINTMEDAVKILLPAVFFLATQRERR”, the “soluble on expression in E. coli” value was “soluble”. For “MRILLIHSDYIEYEVKDKAIKNPEPISEEEKKGRMDEVLVAFISVEKVDETNPEEVVSKAVEEIINVASQVKAENVFVYPFAHLSSELAKPSVAQEILRKVYEGLKEKGYNVGKAPFGYYKAFKISCKGHPLAELSRTIIPEGAKEEEVPEALKKEETELVSYWYILTPEGELIEVDKFDFTGYENLRKFANYEISKSRIAEKEPPHVKLMLEHELVDYEPGSDPGNLRYYPKGRLIKSLLEQYVTEKVIEYGAMEVETPVMYDFEHPALEKYLNRFPARQYIVLSGDKKYFLRFAACFGQFLISKDAVISYRHLPLRMYELTRYSFRREKRGELSGLRRLRAFTMPDMHTLAKDLEQAKDEFKKQFKLSMEVLKGVGLTPEDYEVAIRFTEDFWKENRDFIVELVKIIGKPVLIEMWKQRFFYFILKFEFNFVDNLDKAAALSTVQIDVENAERFGIKYYDENGEEKYPLILHCSPSGAIERVMYAILEKQAKLMQEGKKPMLPLWLSPIQVRVIPVSEEYLDYALYIAGKLEGARIRVDVDDEDERLNKKIRRAEKEWIPYIVVVGAKEKESGTITVRRREDGKQYETRLEELIKEIKEKVEGFPYKPRPLPLLLSKRPKFRG”, the “soluble on expression in E. coli” value was “soluble”. For “MRIMGLDVGSKTVGVAISDPLGFTAQGLEIIKIDEEKAEFGFTRLEELVKQYQVEQFVIGLPKNMNNTNGPRVDASITYGNHIEHLFGLPVHYQDERLTTVEAERMLIEQADISRGKRKKVIDKLAAQLILQNYLNRNFLEHHHHH”, the “soluble on expression in E. coli” value was “soluble”. With “MRITLVDHPLVQHKLAHLRDKRTGPKDFRELAEEVAMLMAYEAMRDLELEETTVETPIAPARVKVLSGKKLALVAILRAGLVMVEGILKLVPHARVGHIGLYRDPESLNPVQYYIKLPPDIAERRAFLLDPMLATGGSASLALSLLKERGATGVKLMAILAAPEGLERIAKDHPDTEVVVAAIDERLNDHGYIVPGLGDAGDRIYGTK” the “soluble on expression in E. coli” value was “soluble”. In the case of “MRIWNRIRCISTIRKNPTCQDVKAPLVSSQVFDPDVWSWNSAPESSLDLPIDSSPNFSMPPATSSETEFAENEESTSSSDDKKKRSEVIEENRSDGHAPIKSALSILMRSLQKSSSMTTSLSDIDVTLFNFHSTKFAERLLNRNVSSVVIVESSHVFSKNAKKFASEFSNVSAYRADIYTLMGVGRKKTAQFPRKMMFADFGKNETPEQYENIHPLTLTSAESSSNSEHLHAKFRRPHLLGVLPTPTIQRTILDSMIQHVLLHHSGNDEDTIFRYGDTNLLTFLGSGILAQYTCSTDNRLNFLSHQHRRHSALFNKLFEVKMLQTRQSEDPETAEIPIGHPPTSFHPLLPTAKKITHEKKLSDVNLTNGLQYPVQILPQKHLKIGGNEVTTENGMGRMLVDYACFMTQIGRQPNAKAVDQVVRLLWPESALSIPADILGDHKIGQLPNDHLDVIFQHVHEELHNTSIAKTYCNELKIKRAI”, the “soluble on expression in E. coli” value is reported as “not soluble”. For “MRKDETSNTSPDISAAQPASALRYHLRPPRRNDGAAIHQLVSECPPLDLNSLYAYLLLCEHHAHTCVVAESPGGRIDGFVSAYLLPTRPDVLFVWQVAVHSRARGHRLGRAMLGHILERQECRHVRHLETTVGPDNQASRRTFAGLAGERGAHVSEQPFFDRQAFGGADHDDEMLLRIGPFTHPPH”, the “soluble on expression in E. coli” value was “not soluble”. For “MRKEAIHHRSTDNFAYAYDSETLHLRLQTKKNDVDHVELLFGDPYEWHDGAWQFQTMPMRKTGSDGLFDYWLAEVKPPYRRLRYGFVLRAGGEKLVYTEKGFYHEAPSDDTAYYFCFPFLHRVDLFQAPDWVKDTVWYQIFPERFANGNPAISPKGARPWGSEDPTPTSFFGGDLQGIIDHLDYLADLGITGIYLTPIFRAPSNHKYDTADYFEIDPHFGDKETLKTLVKRCHEKGIRVMLDAVFNHCGYEFAPFQDVLKNGAASRYKDWFHIREFPLQTEPRPNYDTFAFVPHMPKLNTAHPEVKRYLLDVATYWIREFDIDGWRLDVANEIDHQFWREFRQAVKALKPDVYILGLIWHDAMPWLRGDQFDAVMNYPLADAALRFFAKEDMSASEFADRLMHVLHSYPKQVNEAAFNLLGSHDTPRLLTVCGGDVRKVKLLFLFQLTFTGSPCIYYGDEIGMTGGNDPECRKCMVWDPEKQNKELYEHVKQLIALRKQYRALRRGDVAFLTADDEVNHLVYAKTDGNETVMIIINRSNEAAEIPMPIDARGKWLVNLLTGERFAAEAETLCVSLPPYGFVLYAVESW”, the “soluble on expression in E. coli” value was “soluble”. In the case of “MRKEEVLALLRSRWPELCALGVAELYLFGSLARGEARPRSDVDLLVAFATPPGFEGYWRVKEFLESLLGRPVDLVMKGALKPWAVSEVLGEAVRVA”, the “soluble on expression in E. coli” value is reported as “soluble”. In the case of “MRKIHFTDKYLLSPYHPVTVLVAGAGGTGSQVITSLARMSVALQALGHPGLHLTAFDPDTVTEANIGRQLFSETELGLNKATALVTRVNRFFGYAWEARECRYPIITKEGDKSVPLANIIITCTDNTRSRLDLWRFLKKYREYKKNDEKAPIYWMDFGNAQTTGQVLIGNIRSKISQPASSEYLPMPRMNVITEEVSYSTIREEDSGPSCSLAEALRKQDLFINSMLAQIGCDILWCMFREGRTFYRGAYLNLDTLRVNPIPV”, the “soluble on expression in E. coli” value is reported as “not soluble”. In the case of “MRKLKMMLCVMMLPLVVVGCTSKQSVSQCVKPPPPPAWIMQPPPDWQTPLNGIISPSGNDWLEHHHHHH”, the “soluble on expression in E. coli” value is reported as “not soluble”. In the case of “MRKLWPLALLLAACGAQDVGAGLDPLRLTATSLPPAYLGEPYSASLAAEGGVRPYSFTLDGKLPEGLSFQGGRLFGVPKEKGSFPLLLTVEDAAKNSRAQRLTLTVSDPPPPRLALVLPPAQVEGPFLLLARVEGREAVGFQMEVRLADLEPDLAGLKALSPAHLLDYDPATRLLRLDMAFAKPVKDREAFRFLLTPQKPLVPRLSPKVVFYDKEGKPLGQPLPRGKPFAELLRLAQAWGREGKALKEDLDGDGKVGEADLRLLAQGYFPKPETPSPEVPGGGEGQASGEEQAP”, the “soluble on expression in E. coli” value is reported as “soluble”. With “MRKMKSLYLAIQQHESRRWSPVAKVTKNGGVYRLVYTKGAWEVPGFSGFARMEDLYQEYRSAEIFPILKNRTLPRSRPEYQNYILWLGLSPEEHDELDELARSGGIRATDQIELIPAPERKEDGSFEAFFFVRGISYIPGTADIDLKIGDRLFVMKDFQNEQDSAALLLRTGDPVSVVGYAPRYYSHDLSRLAELCPPQDLLVTVERLNNNAPAAYKVLCKVVAPWPAGFDFFGSHVFDEVPKAPVSLEHHHHHH” the “soluble on expression in E. coli” value was “not soluble”. In the case of “MRKMMQNHQNTRFYFSASLILFNDKEMGKRSNYHHLVAFGGFFKALPDDGDLLTRFVTVEKLKKLPHCKFPFFPVKKPSLSPKMQPSYDADDFMRRGFFGSFIGFRKRSSSKPGELYAKNVTYSQIFSRHLID”, the “soluble on expression in E. coli” value is reported as “soluble”. For “MRKPIEHTADIAYEISGNSYEELLEEARNILLEEEGIVLDTEEKEKMYPLEETEDAFFDTVNDWILEISKGWAPWRIKREGNELKVTFRKIRKKEGTEIKALTYHLLKFERDGDVLKTKVVFDT”, the “soluble on expression in E. coli” value was “not soluble”. With “MRKQFLIAHRGYSTIAPENTHLAFAAAQLFGFDGLWMEVQLTKDKQIVVTNLDNYKVGNKTHKLSDINLVNLKKINLAKQFKVNVQEQTILTLKEVLMEFLTPFRFLLLFIKGEEEQQNQVLVEQLAQLLEGFELAKEKLILLSSHFSTIKYLNEKLKSFKTSFVFNSKKQLVHLTKDEITQNCRFLAPNDSFYHKNCAELQSYGLPIILWVIKGLLRYQFYENDRFVKFQIAAQLY” the “soluble on expression in E. coli” value was “soluble”. With “MRKSRLSRYKQNKLIELFVAGVTARTATEPDSIVYTDCYRRYDVLDAGEFSHFRINHSTHFAERQNHINGIGNFWNRAKRHLRKFDGIPKEHFEPYLKECERRFNNSEIKVLVPFLEHHHHHH” the “soluble on expression in E. coli” value was “not soluble”. In the case of “MRKSVFVLVFLMASVLFSVELKICYLNEDLLPIVKVTEGRDNPVLEIFEALSSPPEGLKTFVPEGVLRAYFFVGDYLILDFYGEKLKGMNFDSERYFLHQVLYTTFLNVKGVNNVYIIIDGKKRDVLAKHVDIRFSFPREVWEKWPIRLEHHHHHH”, the “soluble on expression in E. coli” value is reported as “not soluble”. With “MRKVTAAVMASTLAFSFLSHAAEVVTSDNWHPGDGATQRSAQNHMFDGISLTEHQRQQMRDLMQQARHEQPPVNVSEMETMHRLVTAEKFDESAVRAQAEKMAQEQVARQVEMARVRNQMYRLLTPEQQAVLNEKHQQRMEQLRDVAQWQKSSSLKLLSSSNSRSQLEHHHHHH” the “soluble on expression in E. coli” value was “not soluble”. For “MRKYEQKQLRNHDILTQHYEEVYRQLPEFKSLDDSISILSVQYGKRLLNGDQKAISSLKEELAILRASKQELLRSSGFPADYLEPVYDCPNCKDTGYIGNQKCHCFKKAIIDLLYEQSNLKEILKKENFSNFALDYYSTNFIDPKTGRSSRQVIEDALRICRNFVTSFGTDFQNLFLYGDVGVGKTFLSNCIAKELMDKEYSVLYFSASKFFSSLAKHAFDKQDVDAQNMFELIYNCDCLIIDDLGTEYTNNFIASQFFTCINERLLNSRSTIISTNLSLDTLADLYTERSFSRITSNYIMLKLIGDDIRIKKKLKNREEN”, the “soluble on expression in E. coli” value was “not soluble”. In the case of “MRLAVLIDADNAKADAISDLLAEVSKFGVATVKRAYGDWTTTNLQGWKKQLHKYAIQPMQQFSYTRGKNSTDASMIIDGMDLLYTGNFDGFCIVSSDCDFTRLATRFREAGLSVYGFGEKKTPEPFVAACDRFIFTEILGKGETQEKPAATGKADESAASKELLKLLRKAVAAVSGEDGWASLSNLGSHISKIRPSFDSRNYGYSKLSTLVKNLDIFETRMVPSADKLHTDVFLRLKDGKLEHHHHHH”, the “soluble on expression in E. coli” value is reported as “not soluble”. For “MRLDLENLVETPSNEIAGFYEGLVEALPSLEGHYCSPGCRGGFLMRVREGTMMGHIVEHVALELQELAGMHVGFGRTRETATPGVYQVVIEYINEEAGRYAGRAAVRLCQSIVDRGRYPKAELEQDIQDLKDFSREASLGPSTEAIIKEAEKRGIPWMPLAARFLIQLGYGVNQKRMQATMTDNTGILGVELACDKEATKRILAANGVPVPRGTVINFLDDLEESIEYVGGYPIVIKPLDGNHGRGITIDIRSWDEAEAAYEAARQVSRSIIVERYYVGRDHRVLVVDGKVVAVAERVPAHVIGNGRSSIAELITETNQDPNRGEGHDNVLTKIELDRTSYQLLERQGYTLNSVPPKGTICYLRATANLSTGGSAVDRTDEIHPENVWLAQRVVRIIGLDIAGLDIVTTDISRPLRDVDGVIVEVNAAPGFRMHVAPSQGIPRNVAGAVMDMLFPNEKPSRIPILTVTGTNGKTTTTRLLAHIYRQTKKVVGYTTTDGTYIGDYLVEAGDNTGPQSAHVILQDPTVEVAVLESARGGILRSGLGFESANVGVVLNVAADHLGIGDIDTIEQLANLKSVVAEAVFPDGYAVLNADDHRVAAMSEKTKANIAYFTMNPDSDLVRKHIQKGGVAAVYENGYLSIVKGDWTHRIERAENIPLTMGGKAPFMIANALAASLAAFVQNVTIEQIRPGLRTFRASVSQTPGRMNLFNLGKYHALVDYAHNPASYEALGSFVRNWTTGQRIGVIGGPGDRRDEDFVTLGKLSADIFDYILVKEDDDTRGRLRGSASDLIIQGITQVKPNSRFESILDETQAINKALDMAPDGSLVVILPESVNRAIKLIKVRGVQEEIQPQNSTTTINDSQNGVAPSSVVNTLL”, the “soluble on expression in E. coli” value was “not soluble”.
